Measured values published in paper PMC8631645, “Avidity observed between a bivalent inhibitor and an enzyme monomer with a single active site” (PLoS ONE, 2021).

Experiments:
bovine trypsin = bovine trypsin (bovine); experiment: enzyme activity titration; pre-titrated bovine trypsin (9 uL, 30 uM) mixed with six dilutions of APPI monomer or dimer; residual activity on 100 uM L-BAPA, 100 mM Tris, 5 mM CaCl2, pH 8.0, 37 C; compared with concentration by absorbance at 280 nm; conditions: both partners purified
mesotrypsin = molecular target: T1, mesotrypsin (human, UniProt P35030 81-304); experiment: enzyme inhibition kinetics; mesotrypsin 0.25 nM, Z-GPR-pNA 5-250 uM, APPI monomer 0-400 nM or dimer inhibitor units 0-96 nM, 37 C, 100 mM Tris, 1 mM CaCl2, pH 8.0; global fit to the classic competitive inhibition equation; for the dimer an apparent constant of a single inhibitory unit; conditions: both partners purified
T1 construct: also called recombinant human mesotrypsin
T1 sequence (looked up): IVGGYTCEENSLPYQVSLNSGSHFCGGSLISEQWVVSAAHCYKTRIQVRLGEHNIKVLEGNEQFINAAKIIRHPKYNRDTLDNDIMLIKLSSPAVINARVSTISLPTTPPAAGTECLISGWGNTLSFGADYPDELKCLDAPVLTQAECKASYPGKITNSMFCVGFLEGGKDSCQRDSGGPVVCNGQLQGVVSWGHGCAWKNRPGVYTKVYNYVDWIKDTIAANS

B1: dimeric amyloid precursor protein inhibitor (APPI homodimer, two APPI units in tandem joined by a GGGGSx3 linker) (other)
chain: EVCSEQAETGPCRAMISRWYFDVTEGKCAPFFYGGCGGNRNNFDTEEYCMAVCGSAMGGGGSGGGGSGGGGSEVCSEQAETGPCRAMISRWYFDVTEGKCAPFFYGGCGGNRNNFDTEEYCMAVCGSAM
modifications: three disulfides per Kunitz unit. Limits from the printed primers (text says 3L33 residues 4-55 = 290-341). GGGGSx3 linker kept between units. Possible restriction-site residues at the junction and …
Which results are given for B1?
stoichiometry N (bovine trypsin): 2 trypsin per APPI dimer; Ki (mesotrypsin): 36.1 nM
